Where “and” joins values, the source holds several entries; their conditions need not be identical. Identical values can stand only once.
Columns and labels:
[1] = biological target: cellular (native) canine TK1 from MDCK cells (dog (endogenous in MDCK)); assay: SEC; Superose 12, 0.01 M HEPES/KOH pH 7.6, 0.15 M NH4Cl, 0.02% NaN3; crude cell extracts (MDCK, CEM), untreated or treated with DTE before chromatography; fractions read by TK1 activity and western blot
[2] = biological target: canine serum TK1 (dog (endogenous in serum)); assay: SEC; Superose 12, 0.01 M HEPES/KOH pH 7.6, 0.15 M NH4Cl, 0.02% NaN3; sera diluted 1:1, untreated or pre-treated with 20 mM DTE; fractions read by TK1 activity and immunoaffinity capture with western blot
[3] = biological target: the molecule itself; assay: as above
[4] = biological target: the molecule itself; assay: SEC; Superose 12, 0.01 M HEPES/KOH pH 7.6, 0.15 M NH4Cl, 0.02% NaN3; crude cell extracts (MDCK, CEM), untreated or treated with DTE before chromatography; fractions read by TK1 activity and western blot
[5] = biological target: the molecule itself; assay: SEC; Superose 12, 0.01 M HEPES/KOH pH 7.6, 0.15 M NH4Cl, 0.02% NaN3, no reducing agent in the buffer; 4 ug of freshly isolated recombinant TK1, untreated or pre-incubated with 20 mM DTE for 30 min on ice; fractions read by TK1 activity and western blot

cellular (native) canine TK1 from MDCK cells (enzyme)
stoichiometry N [1]: 2 and 4

canine serum TK1 (enzyme)
stoichiometry N [2]: 2 and 4

B1: human serum TK1 (enzyme, human (endogenous in serum), UniProt P04183 1-234, looked up)
chain: MSCINLPTVLPGSPSKTRGQIQVILGPMFSGKSTELMRRVRRFQIAQYKCLVIKYAKDTRYSSSFCTHDRNTMEALPACLLRDVAQEALGVAVIGIDEGQFFPDIVEFCEAMANAGKTVIVAALDGTFQRKPFGAILNLVPLAESVVKLTAVCMECFREAAYTKRLGTEKEVEVIGGADKYHSVCRLCYFKKASGQPAGPDNKENCPVPGKPGEAVAARKLFAPQQILQCSPAN
notes: thymidine kinase 1, human, serum form; polypeptide of apparent MW 25 kDa on western blot; source: endogenous, pooled sera from human patients with acute lymphocytic leukemia
stoichiometry N [3]: 2 and 4

B2: cellular (native) human TK1 from CEM cells (enzyme, human (endogenous in CCRF-CEM), UniProt P04183 1-234, looked up)
chain: B1 chain
notes: thymidine kinase 1, human, endogenous in CCRF-CEM cells; 25 kDa band on western blot; also called cytosolic human TK1; source: endogenous, crude CCRF-CEM cell extract
stoichiometry N [4]: 2 and 4

B3: recombinant human thymidine kinase 1 (enzyme, UniProt P04183 1-234, looked up)
chain: B1 chain
notes: thymidine kinase 1, human, full-length cDNA; vector pEXP-5NT/TOPO; also called hTK1; human TK1
stoichiometry N [5]: 2 and 4

— paper PMC3411398, “Quaternary structures of recombinant, cellular, and serum forms of Thymidine Kinase 1 from dogs and humans” (BMC Biochemistry, 2012)
